Experimental data reported in patent US20230025129A1 (KYMAB, published 2023).

T1: human matriptase-2 ECD protein his tag (human, UniProt Q8IU80 78-811)
T1 construct: also called human MTP-2 ECD; huMTP-2
T1 sequence: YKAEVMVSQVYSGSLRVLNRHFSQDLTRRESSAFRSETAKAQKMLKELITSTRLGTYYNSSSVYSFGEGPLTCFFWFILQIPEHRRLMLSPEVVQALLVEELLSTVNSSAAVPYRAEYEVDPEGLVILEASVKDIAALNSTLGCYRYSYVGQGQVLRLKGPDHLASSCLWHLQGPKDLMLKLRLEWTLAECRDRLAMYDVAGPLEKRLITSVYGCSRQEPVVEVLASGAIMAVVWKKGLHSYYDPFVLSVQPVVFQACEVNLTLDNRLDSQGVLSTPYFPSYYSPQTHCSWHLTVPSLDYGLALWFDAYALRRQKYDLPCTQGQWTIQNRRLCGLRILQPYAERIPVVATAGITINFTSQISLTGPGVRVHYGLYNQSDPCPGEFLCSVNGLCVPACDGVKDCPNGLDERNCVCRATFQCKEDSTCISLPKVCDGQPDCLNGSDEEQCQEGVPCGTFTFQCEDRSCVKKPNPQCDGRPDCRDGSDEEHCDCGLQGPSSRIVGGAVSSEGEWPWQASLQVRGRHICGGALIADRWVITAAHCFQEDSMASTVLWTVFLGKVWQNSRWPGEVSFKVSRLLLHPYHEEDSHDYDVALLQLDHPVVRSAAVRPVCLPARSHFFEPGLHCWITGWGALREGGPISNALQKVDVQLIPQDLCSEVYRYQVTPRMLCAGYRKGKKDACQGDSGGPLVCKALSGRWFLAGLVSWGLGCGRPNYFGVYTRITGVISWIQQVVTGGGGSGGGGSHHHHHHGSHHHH

T2: human matriptase-2 mask ECD protein his tag (human, UniProt Q8IU80 78-576)
T2 construct: MTP-2 ECD without the serine protease domain, with C-terminal linker and His tag; also called headless huMTP-2 ECD 78-576 aa; headless human MTP-2 ECD
T2 sequence: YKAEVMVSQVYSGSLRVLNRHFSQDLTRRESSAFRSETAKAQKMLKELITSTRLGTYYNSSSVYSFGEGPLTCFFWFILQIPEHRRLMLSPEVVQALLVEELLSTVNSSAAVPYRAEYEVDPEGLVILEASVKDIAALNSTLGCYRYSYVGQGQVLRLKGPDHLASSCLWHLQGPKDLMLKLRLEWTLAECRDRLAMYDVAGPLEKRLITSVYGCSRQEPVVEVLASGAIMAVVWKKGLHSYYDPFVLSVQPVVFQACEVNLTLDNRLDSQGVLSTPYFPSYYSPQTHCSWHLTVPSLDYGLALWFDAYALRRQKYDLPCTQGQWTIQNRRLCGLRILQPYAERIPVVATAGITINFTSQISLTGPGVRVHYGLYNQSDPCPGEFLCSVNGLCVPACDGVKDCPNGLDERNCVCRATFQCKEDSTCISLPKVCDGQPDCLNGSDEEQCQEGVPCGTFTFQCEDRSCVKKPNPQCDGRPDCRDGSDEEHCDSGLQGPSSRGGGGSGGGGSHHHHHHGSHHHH


How the values were obtained:
[1] = target: T1, human matriptase-2 ECD protein his tag; assay: HTRF competition with 647-labelled aprotinin for human MTP-2 protein
Description: Aprotinin is a pan serine protease inhibitor and is known to occupy the active site of serine proteases. A HTRF competition assay against labelled aprotinin confirmed that NORI-003, NORI-006, NORI-008 and NORI-011 were binding at or near this same site and competed with aprotinin for binding to human MTP-2 protein. […] This was confirmed by their lack of competition of aprotinin against moMTP-2 while IC50 values in the enzymatic assay were similar to those of NORI-011. […] FIG. 8. Table L.
Antibodies were titrated into HTRF buffer (DPBS (Gibco—14190144) with 0.1% BSA (Sigma—A7906) and potassium fluoride 0.53M (Sigma—60240-250 G)) at 4× conc with a starting concentration of 200 nM. 5 μL/w of antibodies were added to 384-well white plates (Greiner—784904). Purified proteins of huMTP-2 and moMTP-2 were diluted into HTRF buffer (huMTP-2=40 nM and moMTP-2=240 nM) 4× final conc and plate 5 μL/w. Anti-MTP-2 mAb (NORI-037) in molgG1 backbone was then diluted to 1.2 nM 4× final conc with DELFIA Eu-N1 Rabbit Anti-Mouse-IgG antibody (AD0207) at a 1:1000 dilution 4× final conc in HTRF buffer. Finally, dilute 647-labelled Aprotinin (Sigma—A3428) in HTRF buffer to 20 nM 4× final conc and plate 5 μL/w. Incubate plates for 3 hours or more at RT in the dark. Read plate using HTRF 100 flashes protocol on the EnVision plate reader at 1H 2H and 3H. (Ex: 340 nm Em1: 620 nm Em2: 665 nm).

[2] = target: T2, human matriptase-2 mask ECD protein his …; assay: SPR (Table W)
Method: Off-rate screening was performed by surface plasmon resonance (SPR), using a Biacore 8K system (GE Healthcare). Anti-human Fc mix (˜1000 RU) were immobilised in both active and reference channels in HBS-P+ buffer (GE BR100671) pH 7.4. Anti-MTP-2 hulgG4PE antibodies were then captured for 60 sec at 10 μl/min at 1 μg/ml concentration (approximatively 35 and 50 RU were captured) only on the active channel. MTP-2 ECD protein analytes were then injected (at 100, 25, 6.25, 1.56 and 0 nM concentrations) for 120 sec (association time) at 30 μl/min and dissociation monitored for 600 sec. Multiple cycle kinetics mode was used with all 8 channels being used. Reference and background were subtracted from the sensorgrams for each antibody and data was fitted using a 1:1 interaction model in the Biacore evaluation software. Rmax, ka, kd globally fitted, RI=0.
NORI-011, NORI-008, NORI-003 and NORI-006 were all found to have cross-reactive binding to human, mouse, cyno and rat MTP-2 ECD proteins. […] The true KD value for NORI-008 could not be measured accurately for human or mouse MTP-2 due to a very slow off-rate.

Row | Binder | IC50 [1] [nM] | binding result [2]
1 | NORI-011 (antibody, human IgG4 S228P, lambda, human IgG4PE, lambda; NORI-010 with a P124S mutation in the VH domain) heavy: not shown light: QSALTQPPSASGSPGQSVTISCTGTSSDVGFYNFVSWYQQHPDKAPKVMIYEVSKRPSGVPDRFSGSKSGNTASLTVSGLQAEDEADYYCSSYAGSNKVVFGGGTKLTVLGQPKAAPSVTLFPPSSEELQANKATLVCLISDFYPGAVTVAWKADSSPVKAGVETTTPSKQSNNKYAASSYLSLTPEQWKSHRSYSCQVTHEGSTVEKTVAPTECS | 17 | no binding
2 | NORI-003 (antibody, human IgG4 S228P, kappa, V domains shown, human IgG4PE, kappa; NORI-002 with the free cysteine of the VH domain mutated (printed as 'C49C')) VH: EVQLVESGGGLVKPGRSLRLSCTGSGFTFGDFGMSWFRQAPGKGLEWVGFIRSKPYGGTTDYAPSVRGRFSISRDDSKGIVYLQMNSLRTEDTAVYYCSRNEILTGYYIFDYWGQGTLVTVSS VL: DIQMTQSPSSLSASLGDRVTITCQASHDITNYLIWYQQKPGKAPRLLIFDASILETGVPSRFSGSGSGTDFTFTISSLQPEDFATYYCQQYYNLPLTFGGGTKVDIKR | 7.28 | no binding

Further lines, results first:

Row | IC50 [1] [nM] | binding result [2] | Binder
3 | 13.9 | no binding | NORI-006 (antibody, human IgG4 S228P, kappa, V domains shown, human IgG4PE, kappa) VH: EVQLVESGGGLIKPGRSLRLSCTGSGFTFGDFGLSWFRQAPGKGLEWISFIRSKPYGGTTDYAASVKGRFTISRDDSKNVAYLQMNSLKTEDTAVYYCARNEILTGYYIFDYWGQGTLVTVSS VL: DIQMTQSPSSLSASLGDRVTITCQASQDINNYLNWYQVQPGKAPKLLIFDASILETGVPSRFSGSGSGTDFSFTISSLQPEDIATYYCQQYDNLPLTFGGGTKVDFKR
4 | 0.256 | no binding | NORI-008 (antibody, human IgG4 S228P, kappa, V domains shown, human IgG4PE, kappa, in the in vitro assays; a mouse IgG1 format was used in one in vivo study only; also called NORI-008 hulgG4PE; NORI-008 IgG) VH: QVQLQESGPGLVKPSETLSLTCSVSGGSVSSGRYYWTWIRQPPGKGLEWIGYISNSGNTNYNPSLKSRVTISLDTSKKQFSLSLSAVTAADTAVYYCARGFIYDYWFDPWGQGSLVTVSS VL: DSQMTQSPSSLSASVGDRVTITCQASQDIDNYLNWYQQRPGKAPKLLIYDASKLETGVPSRFSGSGSGTDFTFTISSLQPEDFATYYCQQYGNLPITFGQGTRLDIKR
